Measured values from patent US20150065381A1.
Where “and” joins values, the source holds several entries; their conditions need not be identical. Equal entries are not always repeated.

What was measured:
[1] = target: HIV-1 16055 envelope (HIV-1); test: capture ELISA, plate 1, mAb 0.8 ug/ml
[2] = target: HIV-1 JRCSF envelope (HIV-1) (UniProt P20871); test: capture ELISA, plate 1, mAb 0.8 ug/ml
[3] = target: HIV-1 JRFL envelope (HIV-1); test: capture ELISA, plate 1, mAb 0.8 ug/ml
[4] = target: HIV-1 envelope clone G-011.c02 (multiclade gp160 clone panel) (HIV-1); test: capture ELISA, plate 1, mAb 0.8 ug/ml
[5] = target: HIV-1 envelope clone G-011.c05 (multiclade gp160 clone panel) (HIV-1); test: capture ELISA, plate 1, mAb 0.8 ug/ml
[6] = target: HIV-1 envelope of gp160 clone AG-010.c11 (HIV-1); test: capture ELISA, plate 1, mAb 0.8 ug/ml
[7] = target: HIV-1 envelope of gp160 clone AG-010.c14 (HIV-1); test: capture ELISA, plate 1, mAb 0.8 ug/ml
[8] = target: HIV-1 envelope of gp160 clone B-Acute-008.c11 (HIV-1); test: capture ELISA, plate 1, mAb 0.8 ug/ml
[9] = target: HIV-1 envelope of gp160 clone B-Acute-009-c08 (HIV-1); test: capture ELISA, plate 1, mAb 0.8 ug/ml
[10] = target: HIV-1 envelope of gp160 clone B-Acute-010.c08 (HIV-1); test: capture ELISA, plate 1, mAb 0.8 ug/ml
[11] = target: HIV-1 16055 envelope (HIV-1); test: capture ELISA, plate 2, mAb 2.5 ug/ml
[12] = target: HIV-1 JRCSF envelope (HIV-1) (UniProt P20871); test: capture ELISA, plate 2, mAb 2.5 ug/ml
[13] = target: HIV-1 JRFL envelope (HIV-1); test: capture ELISA, plate 2, mAb 2.5 ug/ml
[14] = target: HIV-1 envelope clone G-011.c02 (multiclade gp160 clone panel) (HIV-1); test: capture ELISA, plate 2, mAb 2.5 ug/ml
[15] = target: HIV-1 envelope clone G-011.c05 (multiclade gp160 clone panel) (HIV-1); test: capture ELISA, plate 2, mAb 2.5 ug/ml
[16] = target: HIV-1 envelope of gp160 clone AG-010.c11 (HIV-1); test: capture ELISA, plate 2, mAb 2.5 ug/ml
[17] = target: HIV-1 envelope of gp160 clone AG-010.c14 (HIV-1); test: capture ELISA, plate 2, mAb 2.5 ug/ml
[18] = target: HIV-1 envelope of gp160 clone B-Acute-008.c11 (HIV-1); test: capture ELISA, plate 2, mAb 2.5 ug/ml
[19] = target: HIV-1 envelope of gp160 clone B-Acute-009-c08 (HIV-1); test: capture ELISA, plate 2, mAb 2.5 ug/ml
[20] = target: HIV-1 envelope of gp160 clone B-Acute-010.c08 (HIV-1); test: capture ELISA, plate 2, mAb 2.5 ug/ml
[21] = target: HIV-1 envelope of gp160 clone B-Acute-010.c09 (HIV-1); test: capture ELISA, plate 2, mAb 2.5 ug/ml
[22] = target: HIV-1 envelope of gp160 clone B-Chronic-014.c02 (HIV-1); test: capture ELISA, plate 2, mAb 2.5 ug/ml
[23] = target: HIV-1 JRCSF envelope (HIV-1) (UniProt P20871); test: capture ELISA, plate 2, mAb 7.5 ug/ml
[24] = target: HIV-1 envelope of gp160 clone B-Chronic-014.c02 (HIV-1); test: capture ELISA, plate 2, mAb 7.5 ug/ml
[25] = target: BG505 envelope (gp120 monomer released from lysed pseudovirus) (HIV-1); test: antigen capture ELISA, mAb 0.8 ug/ml, plate 1
[26] = target: aMLV envelope (from lysed pseudovirus); test: antigen capture ELISA, mAb 0.8 ug/ml, plate 1
[27] = target: BG505 envelope (gp120 monomer released from lysed pseudovirus) (HIV-1); test: antigen capture ELISA, mAb 2.5 ug/ml, plate 1
[28] = target: aMLV envelope (from lysed pseudovirus); test: antigen capture ELISA, mAb 2.5 ug/ml, plate 1
[29] = target: BG505 envelope (gp120 monomer released from lysed pseudovirus) (HIV-1); test: antigen capture ELISA, mAb 2.5 ug/ml, plate 2
[30] = target: aMLV envelope (from lysed pseudovirus); test: antigen capture ELISA, mAb 2.5 ug/ml, plate 2
[31] = target: HIV-1 envelope clone BF-002.c05 (multiclade gp160 clone panel) (HIV-1); test: capture ELISA, plate 1, mAb 0.8 ug/ml
[32] = target: HIV-1 envelope clone F1-002.c11 (multiclade gp160 clone panel) (HIV-1); test: capture ELISA, plate 1, mAb 0.8 ug/ml
[33] = target: HIV-1 envelope clone F1-002.c16 (multiclade gp160 clone panel) (HIV-1); test: capture ELISA, plate 1, mAb 0.8 ug/ml
[34] = target: HIV-1 envelope clone BF-002.c05 (multiclade gp160 clone panel) (HIV-1); test: capture ELISA, plate 2, mAb 2.5 ug/ml
[35] = target: HIV-1 envelope clone BF-002.c08 (multiclade gp160 clone panel) (HIV-1); test: capture ELISA, plate 2, mAb 2.5 ug/ml
[36] = target: HIV-1 envelope clone F1-002.c11 (multiclade gp160 clone panel) (HIV-1); test: capture ELISA, plate 2, mAb 2.5 ug/ml
[37] = target: HIV-1 envelope clone F1-002.c16 (multiclade gp160 clone panel) (HIV-1); test: capture ELISA, plate 2, mAb 2.5 ug/ml
[38] = target: HIV-1 envelope clone BF-002.c05 (multiclade gp160 clone panel) (HIV-1); test: capture ELISA, plate 2, mAb 7.5 ug/ml

| Substance | ELISA OD [2] | ELISA OD [4] [OD] | ELISA OD [5] [OD] | ELISA OD [6] [OD] | ELISA OD [7] [OD] | ELISA OD [8] [OD] | ELISA OD [9] [OD] | ELISA OD [10] [OD] | ELISA OD [12] | ELISA OD [14] [OD] | ELISA OD [15] [OD] | ELISA OD [16] [OD] | ELISA OD [17] [OD] | ELISA OD [18] [OD] | ELISA OD [19] [OD] | ELISA OD [20] [OD] | ELISA OD [21] [OD] | ELISA OD [22] [OD] | ELISA OD [23] | ELISA OD [24] [OD] | also measured |
| --- | --- | --- | --- | --- | --- | --- | --- | --- | --- | --- | --- | --- | --- | --- | --- | --- | --- | --- | --- | --- | --- |
| PG9 (antibody) | 0.24 OD and 0.235 OD | 0.064 | 0.172 | 0.506 | 0.67 | 0.168 | 0.076 | 0.161 | 0.177 OD and 0.186 OD | 0.052 | 0.161 | 0.597 | 0.834 | 0.168 | 0.07 | 0.278 | 0.106 | 0.986 | 0.211 OD and 0.205 OD | 1.48 | ELISA OD [1]: 0.313 OD and 0.242 OD; ELISA OD [3]: 0.064 OD and 0.096 OD; ELISA OD [11]: 0.225 OD and 0.219 OD; ELISA OD [13]: 0.058 OD and 0.051 OD; ELISA OD [25]: 0.261 OD; ELISA OD [26]: 0.091 OD and 0.06 OD; ELISA OD [27]: 0.346 OD; ELISA OD [28]: 0.068 OD and 0.067 OD; ELISA OD [29]: 0.346 OD; ELISA OD [30]: 0.059 OD and 0.053 OD |
| PG16 (antibody) | 0.169 OD and 0.154 OD | 0.057 | 0.099 | 0.177 | 0.491 | 0.164 | 0.058 | 0.132 | 0.172 OD and 0.21 OD | 0.07 | 0.126 | 0.272 | 0.686 | 0.267 | 0.07 | 0.171 | 0.155 | 0.374 | 0.226 OD and 0.245 OD | 0.513 | ELISA OD [31]: 0.518 OD; ELISA OD [32]: 0.146 OD; ELISA OD [33]: 0.341 OD; ELISA OD [34]: 0.927 OD; ELISA OD [35]: 0.108 OD; ELISA OD [36]: 0.121 OD; ELISA OD [37]: 0.349 OD; ELISA OD [38]: 0.764 OD; ELISA OD [25]: 0.165 OD; ELISA OD [26]: 0.073 OD and 0.056 OD; ELISA OD [27]: 0.103 OD; ELISA OD [28]: 0.063 OD and 0.072 OD; ELISA OD [29]: 0.103 OD; ELISA OD [30]: 0.067 OD and 0.069 OD |
| PGT145 (antibody) | 0.058 OD and 0.056 OD | 0.062 | 0.08 | 0.054 | 0.054 | 0.078 | 0.062 | 0.114 | 0.173 OD and 0.086 OD | 0.07 | 0.119 | 0.08 | 0.076 | 0.103 | 0.11 | 0.316 | 0.074 | 0.066 | 0.111 OD and 0.089 OD | 0.092 | ELISA OD [1]: 0.065 OD and 0.059 OD; ELISA OD [3]: 0.057 OD and 0.051 OD; ELISA OD [31]: 0.169 OD; ELISA OD [32]: 0.067 OD; ELISA OD [33]: 0.269 OD; ELISA OD [11]: 0.079 OD and 0.067 OD; ELISA OD [13]: 0.075 OD and 0.058 OD; ELISA OD [34]: 0.297 OD; ELISA OD [35]: 0.073 OD; ELISA OD [36]: 0.072 OD; ELISA OD [37]: 0.456 OD; ELISA OD [38]: 0.649 OD; ELISA OD [25]: 0.066 OD; ELISA OD [26]: 0.056 OD and 0.073 OD; ELISA OD [27]: 0.077 OD; ELISA OD [28]: 0.062 OD and 0.068 OD; ELISA OD [29]: 0.077 OD; ELISA OD [30]: 0.07 OD and 0.066 OD |
| PGT151 (antibody) | 0.058 OD and 0.056 OD | 0.061 | 0.071 | 0.057 | 0.102 | 0.174 | 0.066 | 0.124 | 0.078 OD and 0.068 OD | 0.113 | 0.086 | 0.08 | 0.149 | 0.266 | 0.128 | 0.148 | 0.095 | 0.203 | 0.098 OD and 0.121 OD | 0.462 | ELISA OD [1]: 0.056 OD and 0.061 OD; ELISA OD [3]: 0.066 OD and 0.05 OD; ELISA OD [31]: 0.117 OD; ELISA OD [32]: 0.065 OD; ELISA OD [33]: 0.068 OD; ELISA OD [11]: 0.082 OD and 0.076 OD; ELISA OD [13]: 0.098 OD and 0.072 OD; ELISA OD [34]: 0.174 OD; ELISA OD [35]: 0.067 OD; ELISA OD [36]: 0.115 OD; ELISA OD [37]: 0.114 OD; ELISA OD [38]: 0.253 OD; ELISA OD [25]: 0.054 OD; ELISA OD [26]: 0.054 OD and 0.05 OD; ELISA OD [27]: 0.063 OD; ELISA OD [28]: 0.068 OD and 0.053 OD; ELISA OD [29]: 0.063 OD; ELISA OD [30]: 0.075 OD and 0.104 OD |
| PGV04 (antibody) | 0.896 OD and 1.04 OD | 0.282 | 0.136 | 0.101 | 0.15 | 0.053 | 0.079 | 0.631 | 1.87 OD and 2.17 OD | 0.712 | 0.288 | 0.151 | 0.283 | 0.078 | 0.155 | 1.57 | 2.1 | 4 | 2.78 OD and 2.65 OD | 4 | ELISA OD [31]: 1.91 OD; ELISA OD [32]: 0.079 OD; ELISA OD [33]: 0.118 OD; ELISA OD [34]: 4 OD; ELISA OD [35]: 2.79 OD; ELISA OD [36]: 0.156 OD; ELISA OD [37]: 0.303 OD; ELISA OD [38]: 4 OD; ELISA OD [25]: 0.745 OD; ELISA OD [26]: 0.053 OD and 0.117 OD; ELISA OD [27]: 1.04 OD; ELISA OD [28]: 0.056 OD and 0.073 OD; ELISA OD [29]: 1.04 OD; ELISA OD [30]: 0.085 OD and 0.089 OD |
